These results are taken from WO2008118324A2 (dated 2008).

For experiment [1], the target named is T1, human UPK-Ib expressed on the surface of cells (human, UniProt O75841 1-260).
T1 construct: whole, on cells; also called uroplakin Ib; UPK-1
T1 sequence (looked up): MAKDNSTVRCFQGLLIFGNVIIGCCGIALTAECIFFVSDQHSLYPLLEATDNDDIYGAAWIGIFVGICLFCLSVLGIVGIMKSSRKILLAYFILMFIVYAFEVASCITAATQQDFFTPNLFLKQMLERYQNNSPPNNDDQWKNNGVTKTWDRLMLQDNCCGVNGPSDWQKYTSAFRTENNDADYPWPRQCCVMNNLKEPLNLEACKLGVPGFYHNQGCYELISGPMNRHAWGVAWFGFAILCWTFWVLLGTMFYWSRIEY
The experiment in a line: flow cytometry, antibody at 2 ug/mL on A549 and EKVX cells. In general terms: A flow cytometer gives signals particle by particle.

For experiment [2], the target named is T1, human UPK-Ib expressed on the surface …. Briefly: flow cytometry on a transitional cell carcinoma line.

B1: chimeric 1G9 containing the enhancing Fc mutant (antibody, V domains shown)
VH: QVQLQQPGAELVRPGSSVKVSCKASGYTFSSYWMHWVKQRPIQGLEWIGNIDPSDSETHYNQKFKDKATLTVDKSSSTAYMQLSSLTSEDSAVYYCARSGAGTGPWLAYWGQGTLVTVSA
VL: DIVMTQSPSSLTVTAGEKVTMTCKSSQSLLNSGNQKNYLTWYQQKPGQPPNPLIYWASTRESGVPDRFTGSGSGTDFTLTISSVQAEDLAVYYCQNDYSYPFTFGSGTKLEIKR
notes: domain: C-kappa segment; They are not tied to this construct; also called chlG9-mut; chlG9 Fc mut; not shown: human IgG1 constant region carrying the 'enhancing Fc mutant'
As for B1, the binding result in experiment [1] is reported as “binds”.

B2: 1G9 monoclonal antibody (murine) (antibody, V domains shown)
VH: QVQLQQPGAELVRPGSSVKVSCKASGYTFSSYWMHWVKQRPIQGLEWIGNIDPSDSETHYNQKFKDKATLTVDKSSSTAYMQLSSLTSEDSAVYYCARSGAGTGPWLAYWGQGTLVTVSA
VL: DIVMTQSPSSLTVTAGEKVTMTCKSSQSLLNSGNQKNYLTWYQQKPGQPPNPLIYWASTRESGVPDRFTGSGSGTDFTLTISSVQAEDLAVYYCQNDYSYPFTFGSGTKLEIK
notes: Mouse (BALB/c) hybridoma antibody, tested as culture supernatant and detected with anti-mouse IgG; also called 1G9 MAb
In the case of B2, the binding result in experiment [2] is reported as “binds”.

B3: 5H9 monoclonal antibody (murine) (antibody, V domains shown)
VH: EVQLVESGGGLVQPKGSLKLSCAASGFSFNTYAMNWVRQAPGKGLEWVARIRSKSNNYATYYADSVKDRFTISRDDSESMLYLQMNNLKTEDTAMYYCVRQGDGYYVGWFAYWGQGTLVTVSA
VL: DIQMTQTTSSLSASLGDRVTISCRASQDISNYLNWYQQKPDGTVKLLIYYTSRLHSGVPSRFSGSGSGTDYSLTISNLEQEDIATYFCQQGNTLPFTFGSGTKLEIK
notes: Mouse (BALB/c) hybridoma antibody, tested as culture supernatant and detected with anti-mouse IgG; also called 5H9 MAb; murine 5H9
As to B3, in experiment [2], the binding result is “binds”.
